One experiment concerns the target HLA-A*01:01. In words: IEDB peptide-MHC binding, purified MHC/direct/fluorescence; filed as Kd, often an IC50 or EC50 that approximates it; ≥ and ≤ were set here for values at or beyond the usual limits of such assays.
A further experiment deals with HLA-A*11:01. The description is as above.
The target in another experiment is HLA-A*26:03. Described as above. The settings on record: source organism: Hepatovirus A.
The target of another experiment is HLA-A*31:01. The description is as above.
The next experiment deals with HLA-B*07:02. Described as above.
The target in a further experiment is HLA-B*15:01. The experiment is described as above.
In the next experiment the target is HLA-B*15:02. Described as above. To be noted: source organism: Hepatovirus A.
For a further experiment, the target named is HLA-B*27:05. The experiment is described as above.
In the next experiment the target is HLA-B*35:01. The experiment is described as above. The settings on record: source organism: Hepatovirus A.
In experiment [1] the target is HLA-B*46:01. The description is as above. The settings on record: source organism: Hepatovirus A.
In experiment [2] the target is HLA-B*48:01. Described as above. To be noted: source organism: Hepatovirus A.
Another experiment has as its target HLA-B*57:01. The experiment is described as above. To be noted: source organism: Hepatovirus A.
The target in the next experiment is HLA-B*58:01. The experiment is described as above.
A further experiment has as its target HLA-C*06:02. The description is as above.
The next experiment concerns the target HLA-C*12:03. The description is as above. The settings on record: source organism: Hepatovirus A.
In experiment [3] the target is HLA-A*02:01. The experiment can be described thus: IEDB peptide-MHC binding, purified MHC/competitive/fluorescence; filed as Kd, often an IC50 or EC50 that approximates it; ≥ and ≤ were set here for values at or beyond the usual limits of such assays. To be noted: source organism: Hepatovirus A.
A further experiment addresses HLA-A*02:03. The experiment is described as above. To be noted: source organism: Hepatovirus A.
Another experiment deals with HLA-A*26:02. The experiment is described as above. The settings on record: source organism: Hepatovirus A.
Experiment [4] has as its target HLA-A*30:01. The experiment is described as above. The settings on record: source organism: Hepatovirus A.
For a further experiment, the target named is HLA-A*68:02. The experiment is described as above. The settings on record: source organism: Hepatovirus A.
For experiment [5], the target named is HLA-B*08:01. Described as above. To be noted: source organism: Hepatovirus A.
In the next experiment the target is HLA-B*15:09. The description is as above. The settings on record: source organism: Hepatovirus A.
For a further experiment, the target named is HLA-B*15:17. The experiment is described as above. The settings on record: source organism: Hepatovirus A.
The next experiment addresses HLA-B*39:01. The description is as above. To be noted: source organism: Hepatovirus A.
In experiment [6] the target is HLA-B*48:01. The description is as above. The settings on record: source organism: Vibrio vulnificus YJ016.
For experiment [7], the target named is HLA-A*02:01. In words: IEDB peptide-MHC binding, purified MHC/direct/fluorescence; filed as Kd, often an IC50 or EC50 that approximates it; ≥ and ≤ were set here for values at or beyond the usual limits of such assays. The settings on record: source organism: Escherichia coli.
In another experiment the target is HLA-A*03:01. The description is as above. To be noted: source organism: Escherichia coli.
The next experiment addresses HLA-A*26:01. The experiment is described as above. The settings on record: source organism: Escherichia coli.
The target in experiment [8] is HLA-A*30:01. The description is as above. To be noted: source organism: Escherichia coli.
The target in the next experiment is HLA-A*69:01. Described as above. The settings on record: source organism: Escherichia coli.
Experiment [9] deals with HLA-B*08:01. Described as above. The settings on record: source organism: Escherichia coli.
The next experiment concerns the target HLA-B*40:01. The description is as above. The settings on record: source organism: Escherichia coli.
Another experiment has as its target HLA-B*73:01. The experiment can be described thus: IEDB peptide-MHC binding, purified MHC/competitive/fluorescence; filed as Kd, often an IC50 or EC50 that approximates it; ≥ and ≤ were set here for values at or beyond the usual limits of such assays. The settings on record: source organism: Escherichia coli str. K-12 substr. MG1655.
The target in another experiment is HLA-B*51:01. In words: IEDB peptide-MHC binding, purified MHC/direct/fluorescence; filed as Kd, often an IC50 or EC50 that approximates it; ≥ and ≤ were set here for values at or beyond the usual limits of such assays. To be noted: source organism: Salmonella enterica.
A further experiment deals with HLA-C*15:02. The experiment is described as above. To be noted: source organism: Salmonella enterica subsp. enterica serovar Typhi str. CT18.
The next experiment concerns the target HLA-B*15:42. The experiment can be described thus: IEDB peptide-MHC binding, purified MHC/competitive/fluorescence; filed as Kd, often an IC50 or EC50 that approximates it; ≥ and ≤ were set here for values at or beyond the usual limits of such assays. The settings on record: source organism: Salmonella enterica subsp. enterica serovar Typhi.
For a further experiment, the target named is HLA-B*27:20. The description is as above. To be noted: source organism: Salmonella enterica subsp. enterica serovar Typhi.
Another experiment addresses HLA-B*45:06. The description is as above. To be noted: source organism: Salmonella enterica subsp. enterica serovar Typhi.
The target in experiment [10] is HLA-B*46:01. The experiment is described as above. The settings on record: source organism: Salmonella enterica subsp. enterica serovar Typhi.
Another experiment deals with HLA-B*83:01. Described as above. To be noted: source organism: Salmonella enterica subsp. enterica serovar Typhi.
For a further experiment, the target named is HLA-C*14:02. Described as above. To be noted: source organism: Salmonella enterica subsp. enterica serovar Typhi.
[11] abbreviates: source organism: Escherichia coli.

As to YMYAVSGAL, the Kd in the experiment with HLA-A*01:01 (source organism: Hepatovirus A) is no less than 20 µM; in the experiment with HLA-A*11:01 (source organism: Hepatovirus A) it was no less than 20 µM; with HLA-A*26:03, no less than 20 µM; with HLA-A*31:01 (source organism: Hepatovirus A), no less than 20 µM; with HLA-B*07:02 (source organism: Hepatovirus A), no less than 20 µM; in the experiment with HLA-B*15:01 (source organism: Hepatovirus A), 0.0116 µM. For the same sequence, the Kd in the experiment with HLA-B*15:02 is 0.005 µM; with HLA-B*27:05 (source organism: Hepatovirus A) it was no less than 20 µM; in the experiment with HLA-B*35:01, 0.449 µM; with HLA-B*46:01 [1] it was 1.77 µM; in the experiment with HLA-B*48:01 [2] it was 0.0156 µM; in the experiment with HLA-B*57:01 it was no less than 20 µM. Besides, the Kd with HLA-B*58:01 (source organism: Hepatovirus A) is no less than 20 µM; with HLA-C*06:02 (source organism: Hepatovirus A) it was no less than 20 µM; in the experiment with HLA-C*12:03 it was 0.231 µM; with HLA-A*02:01 [3] it was 0.0037 µM; in the experiment with HLA-A*02:03, 0.0016 µM; with HLA-A*26:02, 4.58 µM. Besides, the Kd with HLA-A*30:01 [4] was 4.14 µM; in the experiment with HLA-A*68:02, 2.12 µM; in the experiment with HLA-B*08:01 [5] it was 0.83 µM; with HLA-B*15:09, 0.322 µM; with HLA-B*15:17, 0.181 µM; in the experiment with HLA-B*39:01, 0.0015 µM.
Sequence DEHPWQPML displayed a Kd with HLA-B*48:01 [6] of no less than 20 µM.
On to RRRIGEIFK, for which the Kd with HLA-A*01:01 (setting [11]) is no less than 20 µM; with HLA-A*02:01 [7], no less than 20 µM; in the experiment with HLA-A*03:01, no less than 20 µM; in the experiment with HLA-A*11:01 (setting [11]) it was no less than 20 µM; with HLA-A*26:01, no less than 20 µM; in the experiment with HLA-A*30:01 [8], 0.00586 µM. In addition, the dissociation constant Kd with HLA-A*31:01 (setting [11]) is no less than 20 µM; in the experiment with HLA-A*69:01, no less than 20 µM; in the experiment with HLA-B*07:02 (setting [11]), no less than 20 µM; with HLA-B*08:01 [9], no less than 20 µM; in the experiment with HLA-B*15:01 (setting [11]), no less than 20 µM; with HLA-B*27:05 (setting [11]) it was 0.0642 µM. For the same sequence, the Kd in the experiment with HLA-B*40:01, with HLA-B*58:01 (setting [11]) and with HLA-B*73:01 was no less than 20 µM in each case.
As to YLRNAGAAM, the dissociation constant (Kd) was 0.0013 µM with HLA-B*07:02 (source organism: Salmonella enterica); 0.031 µM with HLA-B*15:01 (source organism: Salmonella enterica subsp. enterica serovar Typhimurium str. LT2); no less than 20 µM with HLA-B*51:01; 3.62 µM with HLA-C*06:02 (source organism: Salmonella enterica subsp. enterica serovar Typhi str. CT18); 3.59 µM with HLA-C*15:02; no less than 5 µM in the experiment with HLA-B*15:42. Besides, the Kd with HLA-B*27:20 is 0.186 µM; in the experiment with HLA-B*45:06 it was no less than 5 µM; with HLA-B*46:01 [10] it was 0.0547 µM; with HLA-B*83:01 it was no less than 5 µM; with HLA-C*14:02 it was 0.0036 µM.

The record behind these values is the Immune Epitope Database (IEDB).
